Laboratory results reported in US6605443 (LUDWIG INSTITUTE FOR CANCER RESEARCH, dated 2003).

Columns and labels:
[1] = target: T1, heteromeric complex of kinase-deficient TβR-II and TβR-I (UniProt P36897 34-503; P37173 23-567); test: co-immunoprecipitation with Flag antiserum of 125I-TGF-β1 affinity-labeled receptors, COS cells
T1 construct: whole, on cells; also called TβR-II KD with TβR-I
Procedure: (§1) To obtain insight into the mechanism by which Smad7 exerts its negative role in signaling by TGF-β family members, it was tested whether Smad7, like Smad2 and Smad3 (Zhang et al., *Nature* 383:168–172, 1996; Macías-Silva et al., *Cell* 87:1215–1224, 1996; Nakao et al., 1997), can associate with the TGF-β receptor complex. COS cells transfected with N-terminally Flag-tagged Smad7 in combination with TβR-II (wild-type, WT, or kinase-deficient mutant, KD) and TβR-I (wild-type or kinase deficient mutant) were affinity labeled with ^125I-TGF-β1, and cell lysates were subjected to immunoprecipitation with Flag antiserum against the Flag-epitope in Smad7. Immunoprecipitates were analyzed by SDS-PAGE and FujiX Bio-Imager. Expression of receptors and F-Smad7 after transfection was determined by immunoprecipitation with VPN antibody against TβR-I or DRL antibody against TβR-II on aliquots of cell lysates, and by immunoprecipitation with Flag antibody on lysates [^35S]methionine/cysteine labeled transfected cells. […] In contrast, Smad2 and Smad3 interact stably only with complex of […] (Macías-Silva et al., 1996; Nakao et al., 1997). No interaction was observed between Smad7 and a heteromeric complex of kinase-deficient TβR-II and TβR-I, or with TβR-II alone (FIG. 3). […]

TβR-II alone = target: T2, TβR-II alone (UniProt P37173 23-567, limits assumed); test: as above
T2 construct: whole, on cells
Procedure: as §1

T2 sequence (P37173 23-567 limits assumed): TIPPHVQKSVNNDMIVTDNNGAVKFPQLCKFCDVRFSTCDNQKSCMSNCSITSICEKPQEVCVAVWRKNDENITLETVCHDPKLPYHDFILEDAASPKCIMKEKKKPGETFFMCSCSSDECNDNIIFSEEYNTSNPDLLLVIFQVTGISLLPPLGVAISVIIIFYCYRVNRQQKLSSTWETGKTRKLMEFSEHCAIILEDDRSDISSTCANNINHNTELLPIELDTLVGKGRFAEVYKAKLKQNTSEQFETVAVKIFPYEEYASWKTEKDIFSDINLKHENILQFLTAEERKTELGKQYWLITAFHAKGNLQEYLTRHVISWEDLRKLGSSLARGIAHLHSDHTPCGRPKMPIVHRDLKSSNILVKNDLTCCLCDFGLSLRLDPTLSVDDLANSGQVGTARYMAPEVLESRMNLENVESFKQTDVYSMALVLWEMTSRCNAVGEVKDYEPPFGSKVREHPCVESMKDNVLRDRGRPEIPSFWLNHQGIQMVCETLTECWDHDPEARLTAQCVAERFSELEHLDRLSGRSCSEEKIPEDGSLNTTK
T1 sequence (P36897 34-503 limits assumed, chain 1 of 2): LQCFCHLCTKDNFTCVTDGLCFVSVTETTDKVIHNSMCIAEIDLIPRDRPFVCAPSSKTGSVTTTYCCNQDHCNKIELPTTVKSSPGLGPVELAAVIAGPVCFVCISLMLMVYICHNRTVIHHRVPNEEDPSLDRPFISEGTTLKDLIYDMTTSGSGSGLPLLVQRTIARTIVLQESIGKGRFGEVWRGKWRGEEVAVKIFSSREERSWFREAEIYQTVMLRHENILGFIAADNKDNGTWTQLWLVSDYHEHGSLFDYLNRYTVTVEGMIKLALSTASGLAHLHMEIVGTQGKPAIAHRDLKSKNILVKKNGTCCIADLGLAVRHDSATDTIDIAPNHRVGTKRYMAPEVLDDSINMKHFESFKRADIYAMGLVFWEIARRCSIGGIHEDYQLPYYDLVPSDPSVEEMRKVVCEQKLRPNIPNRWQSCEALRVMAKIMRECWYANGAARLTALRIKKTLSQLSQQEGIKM
T1 sequence (P37173 23-567 K277R limits assumed, chain 2 of 2): as the sequence (P37173 23-567 limits assumed) above, with K255R counted along it

B1: N-terminally Flag-tagged Smad7 (F-Smad7) (other, not shown: small tags and cut ends)
chain: MFRTKRSALVRRLWRSRAPGGEDEEEGVGGGGGGGELRGEGATDGRAYGAGGGGAGRAGCCLGKAVRGAKGHHHPHPPTSGAGAAGGAEADLKALTHSVLKKLKERQLELLLQAVESRGGTRTACLLLPGRLDCRLGPGAPASAQPAQPPSSYSLPLLLCKVFRWPDLRHSSEVKRLCCCESYGKINPELVCCNPHHLSRLCELESPPPPYSRYPMDFLKPTAGCPDAVPSSAETGGTNYLAPGGLSDSQLLLEPGDRSHWCVVAYWEEKTRVGRLYCVQEPSLDIFYDLPQGNGFCLGQLNSDNKSQLVQKVRSKIGCGIQLTREVDGVWVYNRSSYPIFIKSATLDNPDSRTLLVHKVFPGFSIKAFDYEKAYSLQRPNDHEFMQQPWTGFTVQISFVKGWGQCYTRQFISSCPCWLEVIFNSR
notes: Expressed by transfection in COS cells and immunoprecipitated with Flag antibody; also called F-mSmad7; mSmad7
[1]
  binding result: no binding
TβR-II alone
  binding result: no binding
